Target: human VEGF-A165 (human)

- inhibition of VEGF-stimulated HUVEC growth (CellTiter-Glo): 2.1 nM
Substance: FcD2, monospecific fusion of hinge, Fc, linker and VEGFR1 D2 (from UniProt P17948 129-229) (Fc fusion)

Reference: publication PMC4623440
